This note sets out measurements from PMC11279866, “Synthesis, Radiolabeling, and Biodistribution Study of a Novel DOTA-Peptide for Targeting Vascular Endothelial Growth Factor Receptors in the Molecular Imaging of Breast Cancer” (Pharmaceutics, 2024).

Like-named read-outs stand apart in the source and are kept apart here. Where a SMILES comes first, the peptide text is derived from it. Bridges are numbered along the chain shown (N, C = ends). The star is where a group is joined. DOTA = O=C(O)CN1CCN(CC(=O)O)CCN(CC(=O)*)CCN(CC(=O)O)CC1; Ahx = NCCCCCC(=O)O

Data set [1] can be described thus: n-octanol/water partition coefficient (log p). The class given is physicochemical. Particulars: shake-flask n-octanol/water; 100 μL radiopeptide in 0.99 mL water + 1 mL n-octanol; vortex 5 min, room temperature; centrifugation 10 min 5000 rpm; radioactivity read-out; mean ± SD (n = 3). As for the experimental part:
A total of 100 μL of the radiolabeled peptide was aliquoted into vials containing 0.99 mL of water and 1 mL of n-octanol, which was then mixed by a vortex mixer (Mabnagene, Tehran, Iran) at room temperature for 5 min. Aqueous and organic layers were separated by centrifugation (10 min, 5000 rpm). Then, 500 μL aliquots of each layer were transferred to the new vials, and the radioactivity of both was measured in a dose calibrator (Capintec CRC®-25, Florham Park, NJ, USA).
The lipid–water partition coefficient for the [^68Ga]Ga-DOTA-Ahx-peptide was estimated in the n-octanol water system, using a […]. Approximately, the log p value was −2.17 ± 0.072, considering the below formula (Equation (2)). The result is reported as mean ± SD (n = 3). […] (2) […]

Data set [2] is described as follows: Ex vivo biodistribution in 4T1 tumor-bearing BALB/c mice, with blocking experiment. The following applies: female, mouse, total radioactivity, mean ± SD (n = 3); for tissue uptake at 0.5 h: 30 min p.i.; for tissue uptake at 1.5 h: 90 min p.i. As for the experimental part: (§1) The 4T1 cell line was acquired from the Pasteur Institute of Iran (4T1 is a breast cancer cell line derived from the mammary gland tissue of a mouse BALB/c. (NCBICode: C604/the Pasteur Institute/Tehran/Iran). 4T1 cells are epithelial and can overexpress VEGFRs). The cells were cultured at 37 °C with 5% CO2 in Dulbecco’s modified Eagle’s medium (Gibco, Life Technologies, Carlsbad, CA, USA) supplemented with 10% fetal bovine serum (Gibco) and 1% antibiotics (penicillin and streptomycin). To develop tumor-bearing mice models, Balb/C mice (female, 6–8-week-old, 20–25 g) were purchased from the Institute of Biochemistry and Biophysics (IBB) (University of Tehran, Iran) and kept under the controlled conditions of temperature, humidity, and light/dark cycles with appropriate food and water (approved by the ethics committee of TUMS). Initially, the cells were harvested from the culture flask surface by 10 mM EDTA and centrifuged. After resuspending in serum-free culture medium, 1 × 10^6 cells/100 μL were injected subcutaneously into the right shoulder of mice. In the next 10 days, the tumor size was ready to use for imaging and biodistribution studies with a volume of […] [54].
(§2) The biodistribution of [^68Ga]Ga-DOTA-Ahx-peptide was evaluated in normal and tumor-bearing BALB/c mice. Therefore, 840 kBq in 100 μL saline was injected via the caudal vein of the mice. The animal was euthanized at different time points of 15, 30, 60, and 90 min post-injection using ketamine and xylazine in lethal doses. First, the blood sample was taken from the heart, and then organs (heart, kidney, liver, lungs, etc.) were removed. Tissues were rinsed and weighed, and the radioactivity of each organ was measured using a gamma counter. The organ uptake can be reported as the percentage of injected dose per gram of tissue (ID%/g). A 500-fold excess of DOTA-Ahx-ECRPPDDGLC was used 30 min before radiolabeled peptide injection for the blocking experiment.
Comparative biodistribution studies were conducted in healthy (Figure 7a) and subcutaneously (s.c) tumor-bearing mice (Figure 7b). […] At 30 min, the highest accumulation of the radioactive compound was measured in the kidneys, which was 9.2 ± 0.53%ID/g and increased over time up to 90 min. […] Kidneys in tumor-bearing mice were also the critical organ with the highest radioactivity concentration at different time points (5.62 ± 0.31%ID/g at 30 min and 6.35 ± 0.54%ID/g at 90 min). This increasing profile has confirmed the quick washing-out of important organs such as the heart, lungs, liver, stomach, and intestine, which had relatively high radioactivity uptake. […]
Figure 7 The biodistribution of the [^68Ga]Ga-DOTA-Ahx-peptide in (a) normal and (b) tumor-bearing BALB/c mice. The data are described as %ID/g, calculated at 30, 60, and 90 min after injection. […]

The nature of data set [3]: Ex vivo biodistribution in normal BALB/c mice. The following applies: mouse, total radioactivity, mean ± SD (n = 3); for tissue uptake / tissue uptake at 0.5 h: iv, 840 kBq; for tissue uptake: healthy tissues, time point not stated; for tissue uptake at 0.5 h: normal mice. On the procedure: as §2
Comparative biodistribution studies were conducted in healthy (Figure 7a) and subcutaneously (s.c) tumor-bearing mice (Figure 7b). […] Relatively high uptake was also observed in healthy tissues such as the spleen and intestine (3.7 ± 0.29%ID/g and 5.07 ± 0.21%ID/g, respectively). At 30 min, the highest accumulation of the radioactive compound was measured in the kidneys, which was 9.2 ± 0.53%ID/g and increased over time up to 90 min. Considering kidney uptake, this tracer is excreted mainly from this organ. The distribution profile of the [^68Ga]Ga-DOTA-Ahx-peptide in tumor-bearing mice had some similarity to the normal mice. Kidneys in tumor-bearing mice were also the critical organ with the highest radioactivity concentration at different time points (5.62 ± 0.31%ID/g at 30 min and 6.35 ± 0.54%ID/g at 90 min). This increasing profile has confirmed the quick washing-out of important organs such as the heart, lungs, liver, stomach, and intestine, which had relatively high radioactivity uptake. […] The maximum tumor uptake was 30 min after injection (1.51 ± 0.22%ID/g) and decreased by 90 min.
Figure 7 The biodistribution of the [^68Ga]Ga-DOTA-Ahx-peptide in (a) normal and (b) tumor-bearing BALB/c mice. The data are described as %ID/g, calculated at 30, 60, and 90 min after injection. The results are reported as mean ± SD (n = 3). (c) Tumor-to-organ ratio at 30, 60, and 90 min after IV injection. The uptake profile of (d) blood, (e) muscle, (f) liver, and (g) kidneys in comparison with the tumor from 15 to 90 min.

In the next data set the test system is 4T1 cells. The format is binding, mouse BALB/c. As for the experimental part: as §1
A competitive binding assay was conducted to determine the value of 50% inhibitory concentration (IC50) for the [^68Ga]Ga-DOTA-Ahx-peptide, using the non-radiolabeled peptide as a competitor. […]

The mark [4] stands for this setting: blood, IV 840 kBq, read-out: blood uptake.
The mark [5] stands for this setting: kidney, iv, 840 kBq, read-out: kidney uptake.

What is called IC50 is the midpoint of a concentration-inhibition curve. Lower therefore signals greater potency. `CC(C)C[C@@H]1NC(=O)CNC(=O)[C@H](CC(=O)O)NC(=O)[C@H](CC(=O)O)NC(=O)[C@@H]2CCCN2C(=O)[C@@H]2CCCN2C(=O)[C@H](CCCNC(=N)N)NC(=O)[C@@H](NC(=O)[C@H](CCC(=O)O)NC(=O)CCCCCNC(=O)CN2CCN(CC(=O)O)CCN(CC(=O)O)CCN(CC(=O)O)CC2)CSSC[C@@H](C(=O)O)NC1=O` [[^68Ga]Ga-DOTA-Ahx-VGB3, metal not drawn] ({DOTA-Ahx}-ECRPPDDGLC-OH; disulfide 2-10): the “log p (n-octanol/water partition coefficient)” value in data set [1] was around −2.17 ± 0.072. For the same molecule, the tissue uptake at 0.5 h in data set [2] (setting [4]) turned out to be 1.4 ± 0.18 %ID/g; in data set [2] (setting [5]), 5.62 ± 0.31 %ID/g; in data set [3] (kidney, 30 min p.i., read-out: kidney uptake), 9.2 ± 0.53 %ID/g; in data set [3] (liver, 30 p.i., read-out: liver uptake (maximum)), 4.41 ± 0.56 %ID/g. Moreover, the tissue uptake at 1.5 h in data set [2] (setting [4]) stood at 0.22 ± 0.06 %ID/g; in data set [2] (setting [5]), 6.35 ± 0.54 %ID/g; in data set [3] (blood, healthy mice, 90 min p.i., IV 840 kBq), 0.32 ± 0.036 %ID/g. The tissue uptake in data set [3] (intestine, read-out: intestine uptake) came out at 5.07 ± 0.21 %ID/g; in data set [3] (spleen, read-out: spleen uptake) it was 3.7 ± 0.29 %ID/g. In addition, in the data set with 4T1 cells, the IC50 is around 0.867 µM.
